A word on the Kd: it is a measure of binding affinity in units of concentration. A low value points to a tighter complex.

For two substances, Kd and KD results are on record in paper PMC8100066.

Assay [1] addresses mouse CSL (amino acid residues 53-474), conserved and structurally ordered core domain (mouse) (UniProt P31266). Put plainly: ITC; CSL in the cell at 10 μM, RAM peptides in the syringe at 100 μM; 20 °C; 50 mM sodium phosphate, 150 mM sodium chloride; triplicate, 20 injections of 14 μl.
Assay [2] deals with mouse CSL (RBPJ), core domain 53-474 53-474 (UniProt P31266). The assay can be described thus: isothermal titration calorimetry. Particulars: reference: nonphosphorylated N3RAM peptide; sites S1672. On the technique in general: In ITC the heat of successive injections is recorded.

mouse CSL (amino acid residues 53-474), conserved and structurally ordered core domain (mouse), sequence (P31266 53-474): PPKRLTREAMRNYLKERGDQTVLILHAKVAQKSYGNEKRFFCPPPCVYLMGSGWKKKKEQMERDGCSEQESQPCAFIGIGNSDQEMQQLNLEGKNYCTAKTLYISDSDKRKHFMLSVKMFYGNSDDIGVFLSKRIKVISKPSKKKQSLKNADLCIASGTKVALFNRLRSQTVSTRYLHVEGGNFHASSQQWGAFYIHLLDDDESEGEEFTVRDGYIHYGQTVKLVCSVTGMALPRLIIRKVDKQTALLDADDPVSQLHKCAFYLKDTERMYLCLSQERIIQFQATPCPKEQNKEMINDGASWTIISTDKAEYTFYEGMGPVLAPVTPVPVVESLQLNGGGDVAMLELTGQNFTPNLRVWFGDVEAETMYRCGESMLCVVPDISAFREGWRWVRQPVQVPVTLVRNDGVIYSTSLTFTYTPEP

“human NOTCH3 RAM peptide (residues 1665-1682), nonphosphorylated” returned a Kd in assay [1] of 0.187 µM. As for “human NOTCH3 (N3RAM peptide) RAM domain, 1665-1682 (from UniProt Q9UM47) N3RAMpS1672 peptide”, the KD entry in assay [2] is given as “lost; reference 0.187”.
